This note sets out measurements from paper PMC314469, “Protein Interaction Networks by Proteome Peptide Scanning” (PLoS Biology, 2004).

T1: Yhr016c SH3 (YSC84_YEAST), P32793
T1 chain: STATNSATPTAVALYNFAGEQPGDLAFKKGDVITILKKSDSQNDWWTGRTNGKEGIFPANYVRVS

T2: Boi2 SH3 (BOI2_YEAST), P39969
T2 chain: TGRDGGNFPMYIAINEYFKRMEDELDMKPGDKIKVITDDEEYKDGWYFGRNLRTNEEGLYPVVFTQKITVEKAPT

T3: Boi1 SH3 (BOI1_YEAST), P38041
T3 chain: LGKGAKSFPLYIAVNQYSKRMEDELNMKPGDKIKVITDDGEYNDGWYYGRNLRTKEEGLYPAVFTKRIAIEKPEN

T4: Yfr024 SH3 (LSB3_YEAST), P43603
T4 chain: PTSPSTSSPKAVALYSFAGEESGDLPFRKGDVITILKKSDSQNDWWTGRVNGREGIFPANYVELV

T5: Rvs167 SH3 (RV167_YEAST), P39743
T5 chain: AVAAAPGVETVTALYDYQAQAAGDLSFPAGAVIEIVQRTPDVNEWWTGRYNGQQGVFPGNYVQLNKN

B1: YJL005W 424-437 (peptide)
chain: VIMPEGPRKSVSMA
B2: YOR067C 374-387 (peptide)
chain: VILPQIPPKLTFIL
B3: YDR085C 535-548 (peptide)
chain: VETPPKPIKKDVRF
B4: YPR196W 383-396 (peptide)
chain: VHGPVIPMKALEIA
B5: YCR042C 478-491 (peptide)
chain: VFLPTAPSKHMDFA
B6: YML109W 711-724 (peptide)
chain: VERPSSPTKTITTE
B7: YIL115C 910-923 (peptide)
chain: VENPFLPAKEERTG
B8: YMR191W 432-445 (peptide)
chain: VKEPSFPSRSAFSP
B9: YBR297W 381-394 (peptide)
chain: VHGPGIPMKSLEVA
B10: YKL060C 315-328 (peptide)
chain: VGNPEGPEKPNKKF
B11: YFR028C 120-133 (peptide)
chain: VDPPFMPFRDAGYS
B12: YDR379W 155-168 (peptide)
chain: VKRPLSPTRINGKS
B13: YKL220C 450-463 (peptide)
chain: VKKPARPWRAKPGQ
B14: YJL091C 152-165 (peptide)
chain: VDFPIFPRRFAKVE
B15: YGL194C 43-56 (peptide)
chain: VKHPMKPFRLMLTD
B16: YGR184C 643-656 (peptide)
chain: VHDPNIPLRPKEII
B17: YDL171C 1275-1288 (peptide)
chain: VIRPGVPTKFTKKQ
B18: YGR288W 386-399 (peptide)
chain: VHGPGVPVKTLEIA
B19: YGR217W 326-339 (peptide)
chain: VFSPTNPLRIKIAR

One assay addresses T1, Yhr016c SH3 (YSC84_YEAST), P32793. Kind of assay: SPOT array.
Consider B1, for which the normalised SPOT signal, Boehringer light units (BLU); mean over the file's lines of this peptide was found to be 358.
B2 gave a normalised SPOT signal, Boehringer light units (BLU); mean over the file's lines of this peptide of 158.
The same measure, in the same setting: the figure for B3 is 372; for B4 it is 92.9.
Same read-out and setting: the figure for B5 is 44.5; for B6 it is 159.
On the same count and under the same terms, the figure for B7 is 188; for B8 it is 246; for B9 it is 381.
Take B10: the normalised SPOT signal, Boehringer light units (BLU); mean over the file's lines of this peptide is 131.
Same read-out and setting: the figure for B11 is -0.
On the same count and under the same terms, the figure for B12 is 499; for B13 it is 314.
The same measure, in the same setting: for B14 the value was 1680.
B15: the normalised SPOT signal, Boehringer light units (BLU); mean over the file's lines of this peptide is 3110.
As to B16, the normalised SPOT signal, Boehringer light units (BLU); mean over the file's lines of this peptide was determined as 110.
Molecule B17 showed a normalised SPOT signal, Boehringer light units (BLU); mean over the file's lines of this peptide of 125.
The molecule B18 came in with a normalised SPOT signal, Boehringer light units (BLU); mean over the file's lines of this peptide of 116.
Still for that read-out and setting: for B19 the value was 151.

The next assay addresses T2, Boi2 SH3 (BOI2_YEAST), P39969. Kind of assay: SPOT array.
Molecule B1 yielded a normalised SPOT signal, Boehringer light units (BLU); mean over the file's lines of this peptide of 232.
Molecule B2 registered a normalised SPOT signal, Boehringer light units (BLU); mean over the file's lines of this peptide of 10.1.
Consider B3, for which the normalised SPOT signal, Boehringer light units (BLU); mean over the file's lines of this peptide is 70.6.
Turning to B4, the normalised SPOT signal, Boehringer light units (BLU); mean over the file's lines of this peptide turned out to be 27.7.
Regarding B5, the normalised SPOT signal, Boehringer light units (BLU); mean over the file's lines of this peptide was 46.3.
Same read-out and setting: for B6 the value was 45.2; for B7, 15.7.
On the same count and under the same terms, for B8 the value was 41.9.
Molecule B9 had a normalised SPOT signal, Boehringer light units (BLU); mean over the file's lines of this peptide of 49.9.
B10 gave a normalised SPOT signal, Boehringer light units (BLU); mean over the file's lines of this peptide of 50.6.
With B11, the normalised SPOT signal, Boehringer light units (BLU); mean over the file's lines of this peptide stood at 37.7.
Still for that read-out and setting: the figure for B12 is 49; for B13 it is 88.2.
Regarding B14, the normalised SPOT signal, Boehringer light units (BLU); mean over the file's lines of this peptide worked out at 135.
On the same count and under the same terms, the figure for B15 is 203.
B16 yielded a normalised SPOT signal, Boehringer light units (BLU); mean over the file's lines of this peptide of 57.8.
B17 displayed a normalised SPOT signal, Boehringer light units (BLU); mean over the file's lines of this peptide of 63.3.
Still for that read-out and setting: the figure for B18 is 56.6; for B19 it is 16.2.

A further assay deals with T3, Boi1 SH3 (BOI1_YEAST), P38041. Kind of assay: SPOT array.
As for B1, the normalised SPOT signal, Boehringer light units (BLU); mean over the file's lines of this peptide stood at 75.3.
In the case of B2, the normalised SPOT signal, Boehringer light units (BLU); mean over the file's lines of this peptide worked out at 107.
The molecule B3 registered a normalised SPOT signal, Boehringer light units (BLU); mean over the file's lines of this peptide of 65.
Same read-out and setting: the figure for B4 is 56.4; for B5 it is 100.
Still for that read-out and setting: for B6 the value was 39.5; for B7, 7.6; for B8, 44.6.
Still for that read-out and setting: the figure for B9 is 44.3; for B10 it is 255.
B11: the normalised SPOT signal, Boehringer light units (BLU); mean over the file's lines of this peptide worked out at 70.9.
For the molecule B12, the normalised SPOT signal, Boehringer light units (BLU); mean over the file's lines of this peptide amounted to 208.
As to B13, the normalised SPOT signal, Boehringer light units (BLU); mean over the file's lines of this peptide was 90.9.
For B14, the normalised SPOT signal, Boehringer light units (BLU); mean over the file's lines of this peptide was 2050.
In the case of B15, the normalised SPOT signal, Boehringer light units (BLU); mean over the file's lines of this peptide worked out at 101.
The same measure, in the same setting: the figure for B16 is 22.9; for B17 it is 121.
The same measure, in the same setting: the figure for B18 is 114; for B19 it is 110.

For the next assay, the target named is T4, Yfr024 SH3 (LSB3_YEAST), P43603. Kind of assay: SPOT array.
Turning to B1, the normalised SPOT signal, Boehringer light units (BLU); mean over the file's lines of this peptide was determined as 1120.
For B2, the normalised SPOT signal, Boehringer light units (BLU); mean over the file's lines of this peptide amounted to 812.
The same measure, in the same setting: for B3 the value was 677; for B4, 138.
In turn, B5 gave a normalised SPOT signal, Boehringer light units (BLU); mean over the file's lines of this peptide of 242.
In turn, B6 gave a normalised SPOT signal, Boehringer light units (BLU); mean over the file's lines of this peptide of 0.
For B7, the normalised SPOT signal, Boehringer light units (BLU); mean over the file's lines of this peptide was found to be 82.3.
Turning to B8, the normalised SPOT signal, Boehringer light units (BLU); mean over the file's lines of this peptide came out at 1090.
The same measure, in the same setting: the figure for B9 is 32.9; for B10 it is 186; for B11 it is 579.
The same measure, in the same setting: for B12 the value was 2290.
Still for that read-out and setting: the figure for B13 is 5310.
Molecule B14 showed a normalised SPOT signal, Boehringer light units (BLU); mean over the file's lines of this peptide of 16100.
In turn, B15 came in with a normalised SPOT signal, Boehringer light units (BLU); mean over the file's lines of this peptide of 3950.
B16 came in with a normalised SPOT signal, Boehringer light units (BLU); mean over the file's lines of this peptide of 562.
Same read-out and setting: for B17 the value was 202; for B18, 43.4.
The same measure, in the same setting: for B19 the value was 648.

For a further assay, the target named is T5, Rvs167 SH3 (RV167_YEAST), P39743. Nature of the assay: SPOT array.
Consider B1, for which the normalised SPOT signal, Boehringer light units (BLU); mean over the file's lines of this peptide was 176.
On the same count and under the same terms, the figure for B2 is 10.
With B3, the normalised SPOT signal, Boehringer light units (BLU); mean over the file's lines of this peptide was determined as 86.3.
Regarding B4, the normalised SPOT signal, Boehringer light units (BLU); mean over the file's lines of this peptide came to 27.7.
The same measure, in the same setting: the figure for B5 is 208; for B6 it is 24.4.
B7 came in with a normalised SPOT signal, Boehringer light units (BLU); mean over the file's lines of this peptide of 0.
The same measure, in the same setting: for B8 the value was 59; for B9, 43.5; for B10, 34.3.
B11 registered a normalised SPOT signal, Boehringer light units (BLU); mean over the file's lines of this peptide of 23.3.
In turn, B12 registered a normalised SPOT signal, Boehringer light units (BLU); mean over the file's lines of this peptide of 445.
Still for that read-out and setting: for B13 the value was 49.8; for B14, 512; for B15, 358.
Consider B16, for which the normalised SPOT signal, Boehringer light units (BLU); mean over the file's lines of this peptide turned out to be 51.5.
The molecule B17 gave a normalised SPOT signal, Boehringer light units (BLU); mean over the file's lines of this peptide of 58.1.
On to B18, for which the normalised SPOT signal, Boehringer light units (BLU); mean over the file's lines of this peptide is 52.7.
With B19, the normalised SPOT signal, Boehringer light units (BLU); mean over the file's lines of this peptide came to 1.8.
